Experimental data taken from patent publication US12590288B2, “Method of treating an inflammatory disease by administering an agent which binds a surface receptor on a tuft cell that induces an ILC class 2 inflammatory response” (The Broad Institute, Inc., priority 2017, dated 2026).
Several values for one entry are separate records, joined by “and”; a condition that tells them apart may be missing. Identical values can stand only once.

What was measured:
[1] = test system: small intestinal organoids; assay: RANKL-mediated in-vitro differentiation of M cells in intestinal organoids (scRNA-seq); assay type: cell-based, mouse; details: 5,434 cells from organoids treated with RANKL for 0, 3 and 6 days
Method: Organoid cultures. Following crypt isolation from the whole small intestine^142, the single cell suspension was resuspended in Matrigel® (BD Bioscience) with 1 μM Jagged-1 peptide (Ana-Spec). Roughly 300 crypts embedded in 25 μl of Matrigel® were seeded onto each well of a 24-well plate. Once solidified, the Matrigel® was incubated in 600 μl culture medium (Advanced DMEM/F12, Invitrogen) with streptomycin/penicillin and glutamax and supplemented with EGF (100 ng/mL, Peprotech®), R-Spondin-1 (600 ng/mL, R&D), Noggin (100 ng/mL, Peprotech®), Y-276432 dihydrochloride monohydrate (10 μM, Tocris™)), N-acetyl-1-cysteine (1 μM, Sigma-Aldrich), N2 (1×, Life Technologies), B27 (1×, Life Technologies) and Wnt3A (25 ng/mL, R&D Systems). Fresh media was replaced on day 3, and organoids were passaged by dissociation with TrypLE and resuspended in new Matrigel® on day 6 with a 1:3 split ratio. For selected experiments, organoids were additionally treated with RANKL (100 ng/mL, Biolegends). For T helper cell co-culture experiments, organoids were cultured with Th1, Th2, Th17 or iTregs. Roughly 10,000 T helper cells were added to each well of 500 organoids and were supplemented either to the medium or suspended in the Matrigel®. Treated organoids were dissociated and subjected to scRNA-seq using both methods. […]

[2] = test system: cultured epithelia from proximal or distal trachea; assay: rIL-13-induced mucous metaplasia in air-liquid interface cultured tracheal epithelia; assay type: cell-based, mouse; details: proximal vs distal tracheal epithelium ALI cultures, rIL-13 vs control, 72 hours
Method: Transwell cultures. Cells were cultured and expanded in complete SAGM (small airway epithelial cell growth medium; Lonza, CC-3118) containing TGF-β/BMP4/WNT antagonist cocktails and 5 μM Rock inhibitor Y-27632 (Selleckbio, S1049). To initiate air-liquid interface (ALI) cultures, airway basal stem cells were dissociated from mouse tracheas and seeded onto transwell membranes. After reaching confluence, media was removed from the upper chamber. Mucociliary differentiation was performed with PneumaCult-ALI Medium (StemCell, 05001). Differentiation of airway basal stem cells on an air-liquid interface was followed by directly visualizing beating cilia in real time after 10-14 days. […]
Statistical analysis of proximodistal mucous metaplasia. For the analysis in FIG. 38H,I, the extent of goblet cell hyperplasia was assessed using counts of Muc5ac^+ goblet cells, normalized to counts of GFP^+ ciliated cells. To quantify differences in the count values between the samples in different conditions (n=6, Foxj 1-GFP mice), Applicants fit a negative binomial regression using the ‘glm.nb’ function from the ‘MASS’ package in R. Pairwise comparisons between means for each condition were computed using post hoc tests and p-values were adjusted for multiple comparisons using Tukey's HSD, implemented using the function ‘pairs’ from the ‘emeans’ package in R.

Molecule | differentiated M cells identified by unsupervised clustering [1] | induction of goblet cell differentiation (Muc5ac+ goblet cells normalized to GFP+ ciliated cells) [2]
RANKL: cytokine added to small intestinal organoids as ex vivo model of M cell differentiation (protein, UniProt O35235 139-316, looked up) Tumor necrosis factor ligand …: FSGAPAMMEGSWLDVAQRGKPEAQPFAHLTINAASIPSGSHKVTLSSWYHDRGWAKISNMTLSNGKLRVNQDGFYYLYANICFRHHETSGSVPTDYLQLMVYVVKTSIKIPSSHNLMKGGSTKNWSGNSEFHFYSINVGGFFKLRAGEEISIQVSNPSLLDPDQDATYFGAFKVQDID | 384 cells and 378 cells | –
rIL-13: recombinant murine IL-13 used to induce mucous metaplasia in cultured airway epithelium (protein, UniProt P20109 19-131, looked up) Interleukin-13: APGPVPRSVSLPLTLKELIEELSNITQDQTPLCNGSMVWSVDLAAGGFCVALDSLTNISNCNAIYRTQRILHGLCNRKAPTTVSSLPDTKIEVAHFITKLLSYTKQLFRHGPF | – | much higher induction of goblet cell differentiation in the distal epithelium
